Laboratory results: paper PMC6504924

Columns and labels:
[1] = molecular target: NanoLuc:VEGFR2 fusion on cells (UniProt P35968)
[2] = molecular target: NanoLuc:VEGFR2 fusion on cells (UniProt P35968); assay: FRET or BRET; saturation binding on live HEK293T cells transiently expressing a NanoLuc:RTK fusion; increasing concentrations of DY605-labeled growth factor with and without excess (0.5 µM) unlabeled equivalent; 1.5 h at room temperature, OptiMEM; apparent affinities (EC50)

Chain of NanoLuc:VEGFR2 fusion on cells (P35968 20-1356): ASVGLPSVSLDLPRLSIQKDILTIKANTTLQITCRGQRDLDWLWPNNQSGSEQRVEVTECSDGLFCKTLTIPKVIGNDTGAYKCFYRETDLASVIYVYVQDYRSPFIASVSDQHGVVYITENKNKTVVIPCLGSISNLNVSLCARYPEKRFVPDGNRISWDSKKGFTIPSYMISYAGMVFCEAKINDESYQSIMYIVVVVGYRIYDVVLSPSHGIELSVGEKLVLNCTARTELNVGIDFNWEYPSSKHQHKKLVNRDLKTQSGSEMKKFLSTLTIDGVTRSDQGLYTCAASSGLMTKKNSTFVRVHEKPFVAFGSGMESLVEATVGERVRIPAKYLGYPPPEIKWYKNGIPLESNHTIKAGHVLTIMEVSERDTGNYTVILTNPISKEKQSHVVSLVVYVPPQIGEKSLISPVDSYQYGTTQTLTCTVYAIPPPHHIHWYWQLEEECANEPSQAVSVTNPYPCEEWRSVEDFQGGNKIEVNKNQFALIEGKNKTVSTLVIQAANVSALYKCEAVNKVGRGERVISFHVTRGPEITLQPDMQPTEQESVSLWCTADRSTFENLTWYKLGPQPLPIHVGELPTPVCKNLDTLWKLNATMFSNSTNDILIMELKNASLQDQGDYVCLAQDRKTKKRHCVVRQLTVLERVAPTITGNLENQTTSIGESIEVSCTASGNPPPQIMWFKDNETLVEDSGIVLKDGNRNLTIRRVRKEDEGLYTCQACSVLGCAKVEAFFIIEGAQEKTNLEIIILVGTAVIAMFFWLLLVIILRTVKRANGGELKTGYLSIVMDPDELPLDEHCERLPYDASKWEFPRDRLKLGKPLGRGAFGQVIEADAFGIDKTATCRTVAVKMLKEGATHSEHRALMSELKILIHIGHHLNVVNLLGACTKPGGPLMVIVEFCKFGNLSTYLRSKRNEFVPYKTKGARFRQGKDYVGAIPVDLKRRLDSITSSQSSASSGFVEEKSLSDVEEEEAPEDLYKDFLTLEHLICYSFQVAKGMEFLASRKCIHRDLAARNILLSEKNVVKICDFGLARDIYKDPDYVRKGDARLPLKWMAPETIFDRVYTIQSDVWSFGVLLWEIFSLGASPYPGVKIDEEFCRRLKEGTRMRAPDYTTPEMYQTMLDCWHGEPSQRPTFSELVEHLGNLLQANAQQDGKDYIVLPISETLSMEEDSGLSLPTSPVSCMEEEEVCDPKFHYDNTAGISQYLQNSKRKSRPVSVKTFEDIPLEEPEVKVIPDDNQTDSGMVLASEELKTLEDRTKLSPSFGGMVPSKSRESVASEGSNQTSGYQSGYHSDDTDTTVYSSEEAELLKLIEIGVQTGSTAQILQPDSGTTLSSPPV

| NFAT-luciferase reporter, 6 h stimulation; EC50 as fold against the unlabeled counterpart (printed as 'fold lower', weaker response) [1] | EC50 [2] | Substance |
| --- | --- | --- |
| > 120 fold | 1.2 nM | VEGF165a homodimer labeled with 2-fold molar excess of DY605-NHS-ester (ligand) |
| > 120 fold | 12 nM | VEGF165a homodimer labeled with 5-fold molar excess of DY605-NHS-ester (ligand) |
| – | 0.045 nM | CBT-labeled VEGF165a homodimer (vascular endothelial growth factor isoform VEGF165a labeled with DY605-PEG-CBT on the N-terminal cysteine) (ligand) |
